Reference: patent US20120171195A1

Tests used:
HLA-Cw*1402 (human) [1] = target: HLA-Cw*1402 (human) (UniProt P10321); experiment: Luminex beads; MAb 1/100; competitor rHLA-E
HLA-Cw*0702 (human) [2] = target: HLA-Cw*0702 (human) (UniProt P10321); experiment: Luminex beads; MAb 1/100; competitor rHLA-E
HLA-Cw*0501 (human) [3] = experiment: Luminex beads; MAb 1/100; competitor rHLA-E
HLA-B*4801 (human) = HLA-B*4801 (human) (UniProt P01889); experiment: Luminex beads; MAb 1/100; competitor rHLA-E
HLA-B*1511 (human) [4] = target: HLA-B*1511 (human) (UniProt P01889); experiment: Luminex beads; MAb 1/100; competitor rHLA-E
HLA-Cw*0602 (human) [5] = target: HLA-Cw*0602 (human) (UniProt P10321); experiment: Luminex beads; MAb 1/100; competitor rHLA-E
HLA-B*1513 (human) = experiment: Luminex beads; MAb 1/100; competitor rHLA-E
HLA-B*0801 (human) = HLA-B*0801 (human) (UniProt P01889); experiment: Luminex beads; MAb 1/100; competitor rHLA-E
HLA-Cw*0202 (human) [6] = experiment: Luminex beads; MAb 1/100; competitor rHLA-E
HLA-B*4403 (human) [7] = experiment: Luminex beads; MAb 1/100; competitor rHLA-E
HLA-B*2708 (human) = HLA-B*2708 (human) (UniProt P01889); experiment: Luminex beads; MAb 1/100; competitor rHLA-E
HLA-Cw*1701 (human) [8] = experiment: Luminex beads; MAb 1/100; competitor rHLA-E
HLA-B*4001 (human) = HLA-B*4001 (human) (UniProt P01889); experiment: Luminex beads; MAb 1/100; competitor rHLA-E
HLA-Cw*0304 (human) [9] = experiment: Luminex beads; MAb 1/100; competitor rHLA-E
HLA-B*4501 (human) = experiment: Luminex beads; MAb 1/100; competitor rHLA-E
HLA-B*1401 (human) [10] = target: HLA-B*1401 (human) (UniProt P01889); experiment: Luminex beads; MAb 1/100; competitor rHLA-E
HLA-Cw*0303 (human) = experiment: Luminex beads; MAb 1/100; competitor rHLA-E
HLA-B*3701 (human) = experiment: Luminex beads; MAb 1/100; competitor rHLA-E
HLA-Cw*1502 (human) = experiment: Luminex beads; MAb 1/100; competitor rHLA-E
HLA-Cw*1402 (human) [11] = target: HLA-Cw*1402 (human) (UniProt P10321); experiment: Luminex beads; MAb 1/100; competitor IgG-free serum
HLA-Cw*0702 (human) [12] = target: HLA-Cw*0702 (human) (UniProt P10321); experiment: as above
HLA-B*5801 (human) = experiment: as above
HLA-Cw*0501 (human) [13] = experiment: as above
HLA-B*4006 (human) = HLA-B*4006 (human) (UniProt P01889); experiment: as above
HLA-B*1511 (human) [14] = target: HLA-B*1511 (human) (UniProt P01889); experiment: as above
HLA-B*1801 (human) = experiment: as above
HLA-Cw*0602 (human) [15] = target: HLA-Cw*0602 (human) (UniProt P10321); experiment: as above
HLA-Cw*0202 (human) [16] = experiment: as above
HLA-B*4403 (human) [17] = experiment: as above
HLA-Cw*0302 (human) = HLA-Cw*0302 (human) (UniProt P10321); experiment: as above
HLA-Cw*1701 (human) [18] = experiment: as above
HLA-B*4101 (human) = HLA-B*4101 (human) (UniProt P01889); experiment: as above
HLA-Cw*0801 (human) = HLA-Cw*0801 (human) (UniProt P10321); experiment: as above
HLA-B*1401 (human) [19] = target: HLA-B*1401 (human) (UniProt P01889); experiment: as above
HLA-B*5001 (B50) (human) = experiment: Luminex single-antigen beads; MEM-E/02 1/600; serum Mi114 1/100
HLA-B*4403 (B44) (human) = experiment: as above
[20] = target: HLA-Cw*0401 (Cw4) (human); experiment: as above
HLA-A*2501 (A25) (human) = experiment: as above
HLA-Cw*0304 (human) [21] = experiment: as above
HLA-A*2402 (A24) (human) = HLA-A*2402 (A24) (human) (UniProt P04439); experiment: as above
HLA-B*5301 (B53) (human) = experiment: as above
[22] = target: HLA-Cw*1701 (Cw17) (human); experiment: as above
HLA-B*3901 (B39) (human) = HLA-B*3901 (B39) (human) (UniProt P01889); experiment: as above

murine monoclonal antibody (MAb) MEM-E/02
MFI (HLA-Cw*1402 (human) [1]): 165 MFI
MFI (HLA-Cw*0702 (human) [2]): 220 MFI
MFI (HLA-Cw*0501 (human) [3]): 201 MFI
MFI (HLA-B*4801 (human)): 224 MFI
MFI (HLA-B*1511 (human) [4]): 192 MFI
MFI (HLA-Cw*0602 (human) [5]): 88 MFI
MFI (HLA-B*1513 (human)): 256 MFI
MFI (HLA-B*0801 (human)): 219 MFI
MFI (HLA-Cw*0202 (human) [6]): 220 MFI
MFI (HLA-B*4403 (human) [7]): 89 MFI
MFI (HLA-B*2708 (human)): 191 MFI
MFI (HLA-Cw*1701 (human) [8]): 376 MFI
MFI (HLA-B*4001 (human)): 235 MFI
MFI (HLA-Cw*0304 (human) [9]): 181 MFI
MFI (HLA-B*4501 (human)): 75 MFI
MFI (HLA-B*1401 (human) [10]): 230 MFI
MFI (HLA-Cw*0303 (human)): 139 MFI
MFI (HLA-B*3701 (human)): 80 MFI
MFI (HLA-Cw*1502 (human)): 170 MFI
MFI (HLA-Cw*1402 (human) [11]): 3290 MFI
MFI (HLA-Cw*0702 (human) [12]): 3090 MFI
MFI (HLA-B*5801 (human)): 4570 MFI
MFI (HLA-Cw*0501 (human) [13]): 7530 MFI
MFI (HLA-B*4006 (human)): 9090 MFI
MFI (HLA-B*1511 (human) [14]): 3320 MFI
MFI (HLA-B*1801 (human)): 3510 MFI
MFI (HLA-Cw*0602 (human) [15]): 4180 MFI
MFI (HLA-Cw*0202 (human) [16]): 4110 MFI
MFI (HLA-B*4403 (human) [17]): 3900 MFI
MFI (HLA-Cw*0302 (human)): 2200 MFI
MFI (HLA-Cw*1701 (human) [18]): 2820 MFI
MFI (HLA-B*4101 (human)): 3390 MFI
MFI (HLA-Cw*0801 (human)): 6070 MFI
MFI (HLA-B*1401 (human) [19]): 7080 MFI

murine monoclonal antibody MAb MEM-E/02
MFI (HLA-B*5001 (B50) (human)): < 500 MFI
MFI (HLA-B*4403 (B44) (human)): < 500 MFI
MFI [20]: < 500 MFI
MFI (HLA-A*2501 (A25) (human)): < 500 MFI
MFI (HLA-Cw*0304 (human) [21]): < 500 MFI
MFI (HLA-A*2402 (A24) (human)): < 500 MFI
MFI (HLA-B*5301 (B53) (human)): < 500 MFI
MFI [22]: < 500 MFI
MFI (HLA-B*3901 (B39) (human)): 530 MFI
